Molecular target: covalently linked hexamer of ClpX-ΔN with a single biotinylation site (ClpX6B)
Assay: single-molecule TIRF microscopy (dwell time); ClpX6B (10 nM, preincubated with 2 mM ATP) held by streptavidin on biotinylated BSA on DDS-Tween-20 passivated coverslips; 5 nM of ssrA (Cy3) and ssrADD (Cy5) substrates flowed in with 100 uM MTX, 2 mM ATP, 25 ug/ml BSA, Trolox and oxygen scavenger; ClpX reaction buffer (25 mM Hepes pH 7.4, 100 mM KCl, 20 mM MgCl2, 10% glycerol); 30 °C; dwell times fitted with a single exponential

cpGFP::DHFR::polyG11::ssrA, MTX-bound
reduction of dwell time against Ref11: 50%
